{"source": "patent US7423115B2", "about": "“ARTS C-terminus fragments and mimetics thereof” (SimeTRA Pharm Ltd, priority 2005, dated 2008)", "key": {"[1]": {"target": "T1, Bir3 domain of XIAP protein (Homo sapiens, UniProt P98170)", "T1 construct": "vectors expressing either the Bir3 domain of XIAP protein fused to GST; expressed in transfected cells; host or cells: COS-7", "T1 sequence (P98170 265-330 limits assumed)": "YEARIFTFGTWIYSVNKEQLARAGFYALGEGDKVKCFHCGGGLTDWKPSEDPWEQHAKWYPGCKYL", "assay": "Co-immunoprecipitation of myc-tagged ARTS C-terminus with GST-Bir3 on glutathione beads in transfected, staurosporine-treated COS-7 cells", "type": "binding", "conditions": "COS-7 cells co-transfected, 1.25 μM staurosporine for 1 hr, Western blot with anti-ARTS C-terminus antibody", "procedure": "COS-7 cells were transfected with 2.5 μg each of vectors expressing either the Bir3 domain of XIAP protein fused to GST or the GST alone, together with the myc-tagged ARTS C-terminus or myc-ARTS alone. After 40 hr, cells were exposed to 1.25 μM staurosporine for 1 hr and then washed in phosphate-buffered saline (PBS), scraped off the dish, pelleted, resuspended in 20 μL lysis buffer (150 mM NaCl, 50 mM Tris-HCl (pH 8), 1% NP-40, 0.5% deoxycholate acid, protease inhibitors (Mini Complete®, Roche Applied Science, Indianapolis, Ind.), and incubated on ice for 20 min.\nLysis buffer was added to lysate containing 400 mcg total protein, to a final volume of 1 ml. 100 mcL of 20% glutathione beads was added, and the mixture was rotated at 7.5° C. overnight. Beads were centrifuged at 400×g for 2 min and washed 3 times in 1 ml RIPA buffer (0.1% SDS, 1% NP-40, 0.5% deoxycholate acid, 150 mM NaCl, 50 mM Tris-HCl (pH 8), protease inhibitors). The pellet was boiled for 5 min in an additional 25 mcL RIPA buffer and 10 mcL 4× loading buffer, then the sample was electrophoresed on an SDS poly-acrylamide gel, transferred to PVDF membrane, and subjected to Western blot using monoclonal antibody directed against the ARTS C-terminus. Blots were developed with the West Pico kit (Pierce Biotechnology, Rockford, Ill.)."}, "[2]": {"system": "cells", "assay": "Induction of apoptosis by the ARTS C terminus", "type": "cell-based", "procedure": "Cells were incubated for 24 hours with no peptide (negative control) or with 100 micromolar (mcM) peptides corresponding to residues 1-9 (“pep1”), 10-18 (“pep2”), or 19-27 (“pep3”) of the ARTS C-terminus Apoptotic cells were detected using DAPI staining or TUNEL. For TUNEL assays, the cells were fixed and permeabilized. Apoptosis levels were determined using the TUNEL In situ™ cell death detection TMR kit (Roche) according to the manufacturer's protocol. All samples were coded, and experiments were performed in a blind manner."}}, "data": [{"sequence": "YGPSLRLLAPPGAVKGTGQEHQGQGCH [ARTS C terminus]", "values": [{"measurement": "Interaction with GST-Bir3 domain of XIAP (co-precipitation with glutathione beads)", "setting": "[1]", "result": "co-precipitated"}, {"measurement": "Induction of apoptosis", "setting": "[2]", "result": "sufficient for induction of apoptosis"}]}]}
